Measured values taken from PMC12101266.
Where two headings read alike, the source gives them in different places.

Tests used:
[1] = biological target: casein
[2] = biological target: casein; remark: listed apart in the source

For “purified S. trilobatum serine protease (StSP) (enzyme)”, the Km of casein proteolysis (substrate–velocity curve, UV absorbance at 280 nm, casein 7–80 µM, 37 °C, 50 mM Tris pH 7.8) [1] was 14.1 µM/min and the Km of casein proteolysis (substrate–velocity curve, UV absorbance at 280 nm, casein 7–80 µM, 37 °C, 50 mM Tris pH 7.8) [2] was 14.6 µM.
